Data as given in the supplement of paper PMC9112550, “Optimization of the antimicrobial peptide Bac7 by deep mutational scanning” (BMC Biology, 2022).

Tested on: Escherichia coli TOP10
Assay: shrunken log2 fold change of peptide-encoding DNA abundance (4.5 h post-induction vs induction); higher = less antimicrobial activity (less host growth inhibition)
Conditions: time post-induction: 4.5 h; library: site-saturation at positions 5, 18, 19, 20
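Also: peptides expressed intracellularly from a pBAD plasmid library in pooled LB shake-flask culture, induced with 0.3% L-arabinose, DNA abundance read by NGS, three biological replicates, DESeq2 with apeglm shrinkage.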

Sequence | shrunken log2 fold change
RRIRWRPPRLPRPRPRPCVPPRP | -0.035
RRIRARPPRLPRPRPRPEQIPRP | 0.419
RRIRFRPPRLPRPRPRPDFDPRP | -0.15
RRIRERPPRLPRPRPRPMMWPRP | 0.3
RRIRERPPRLPRPRPRPLKTPRP | -0.457
RRIRPRPPRLPRPRPRPIADPRP | 0.0705
RRIRTRPPRLPRPRPRPISWPRP | -0.0406
RRIRHRPPRLPRPRPRPGKMPRP | -0.423
RRIRCRPPRLPRPRPRPLFRPRP | -0.283
RRIRMRPPRLPRPRPRPYPSPRP | -0.0577
RRIRWRPPRLPRPRPRPRIIPRP | 0.136
RRIRMRPPRLPRPRPRPVLSPRP | 0.0984
RRIRARPPRLPRPRPRPSDIPRP | -0.0794
RRIRERPPRLPRPRPRPSEVPRP | -0.12
RRIRWRPPRLPRPRPRPEVAPRP | 1.25
RRIRLRPPRLPRPRPRPDYLPRP | -0.114
RRIRSRPPRLPRPRPRPFRRPRP | -0.261
RRIRCRPPRLPRPRPRPYCKPRP | -0.894
RRIRTRPPRLPRPRPRPMYKPRP | -0.0126
RRIRWRPPRLPRPRPRPCYIPRP | -0.46
RRIRHRPPRLPRPRPRPFWSPRP | -0.0841
RRIRFRPPRLPRPRPRPVPAPRP | 0.217
RRIRWRPPRLPRPRPRPEWQPRP | 0.0276
RRIRSRPPRLPRPRPRPEKHPRP | -0.211
RRIRHRPPRLPRPRPRPRRNPRP | -0.104

Sequence | shrunken log2 fold change
RRIRFRPPRLPRPRPRPCCNPRP | -0.0548
RRIRFRPPRLPRPRPRPDRSPRP | 0.0602
RRIRWRPPRLPRPRPRPWAKPRP | 0.279
RRIRNRPPRLPRPRPRPRKVPRP | 0.445
RRIRDRPPRLPRPRPRPPARPRP | 1.46
RRIRQRPPRLPRPRPRPCPRPRP | -0.01
RRIRHRPPRLPRPRPRPSLNPRP | -0.51
RRIRCRPPRLPRPRPRPSKLPRP | -0.674
RRIRIRPPRLPRPRPRPIGPPRP | 0.0815
RRIRERPPRLPRPRPRPRVEPRP | -0.182
RRIRIRPPRLPRPRPRPTIDPRP | -0.356
RRIRDRPPRLPRPRPRPYANPRP | -0.209
RRIRARPPRLPRPRPRPPKNPRP | 0.562
RRIRHRPPRLPRPRPRPFQHPRP | -0.0182
RRIRIRPPRLPRPRPRPQRAPRP | -0.249
RRIRERPPRLPRPRPRPWISPRP | 0.0119
RRIRQRPPRLPRPRPRPYRPPRP | -0.103
RRIRTRPPRLPRPRPRPKLDPRP | 0.2
RRIRERPPRLPRPRPRPDFYPRP | -0.491
RRIRRRPPRLPRPRPRPRHFPRP | -0.156
RRIRTRPPRLPRPRPRPWNRPRP | -0.0406
RRIRNRPPRLPRPRPRPDIIPRP | -0.0869
RRIRKRPPRLPRPRPRPLVRPRP | 0.114
RRIRDRPPRLPRPRPRPLYTPRP | -0.181
RRIRNRPPRLPRPRPRPKQKPRP | 0.0568

Sequence | shrunken log2 fold change
RRIRHRPPRLPRPRPRPVNVPRP | 0.0798
RRIRPRPPRLPRPRPRPSKIPRP | -0.129
RRIRWRPPRLPRPRPRPHNRPRP | -0.205
RRIRKRPPRLPRPRPRPEAEPRP | 3.31
RRIRKRPPRLPRPRPRPSQGPRP | 0.0922
RRIRFRPPRLPRPRPRPYASPRP | -0.0651
RRIRARPPRLPRPRPRPVNGPRP | -0.133
RRIRGRPPRLPRPRPRPQIPPRP | 0.25
RRIRSRPPRLPRPRPRPTSQPRP | 0.0259
RRIRDRPPRLPRPRPRPHSLPRP | -0.341
RRIRHRPPRLPRPRPRPMMNPRP | -0.0135
RRIRERPPRLPRPRPRPWDWPRP | 0.0223
RRIRGRPPRLPRPRPRPSRPPRP | 0.624
RRIRCRPPRLPRPRPRPNPRPRP | 0.378
RRIRIRPPRLPRPRPRPEQQPRP | -0.132
RRIRVRPPRLPRPRPRPRFMPRP | -0.459
RRIRYRPPRLPRPRPRPVYKPRP | -0.924
RRIRVRPPRLPRPRPRPWRYPRP | 0.0359
RRIRFRPPRLPRPRPRPAAVPRP | 0.169
RRIRFRPPRLPRPRPRPAVDPRP | 0.43
RRIRERPPRLPRPRPRPEYFPRP | -0.0105
RRIRTRPPRLPRPRPRPRAHPRP | -0.186
RRIRYRPPRLPRPRPRPGFIPRP | 2.02
RRIRERPPRLPRPRPRPSAHPRP | 0.131
RRIRWRPPRLPRPRPRPRLIPRP | 0.55

Sequence | shrunken log2 fold change
RRIRGRPPRLPRPRPRPQEVPRP | 0.00966
RRIRSRPPRLPRPRPRPYMFPRP | -0.648
RRIRPRPPRLPRPRPRPHNCPRP | -0.111
RRIRMRPPRLPRPRPRPWYLPRP | -0.0736
RRIRRRPPRLPRPRPRPGDRPRP | 0.265
RRIRVRPPRLPRPRPRPFKQPRP | -0.0195
RRIRDRPPRLPRPRPRPTAVPRP | 0.421
RRIRMRPPRLPRPRPRPLYRPRP | -0.0998
RRIRWRPPRLPRPRPRPYAFPRP | 0.107
RRIRARPPRLPRPRPRPQDYPRP | -0.159
RRIRQRPPRLPRPRPRPPWQPRP | 0.729
RRIRWRPPRLPRPRPRPKEPPRP | 0.117
RRIRCRPPRLPRPRPRPHTCPRP | 0.0253
RRIRVRPPRLPRPRPRPLKVPRP | -0.136
RRIRMRPPRLPRPRPRPYPIPRP | 0.0414
RRIRIRPPRLPRPRPRPKLMPRP | -0.171
RRIRCRPPRLPRPRPRPTKNPRP | 0.142
RRIRVRPPRLPRPRPRPFFSPRP | -0.371
RRIRQRPPRLPRPRPRPMHLPRP | -0.157
RRIRKRPPRLPRPRPRPLMKPRP | 0.0125
RRIRPRPPRLPRPRPRPVHMPRP | 0.215
RRIRTRPPRLPRPRPRPYDPPRP | -0.0474
RRIRCRPPRLPRPRPRPICMPRP | -0.491
RRIRIRPPRLPRPRPRPDTPPRP | 0.0459
RRIRWRPPRLPRPRPRPIWGPRP | -0.01

Sequence | shrunken log2 fold change
RRIRIRPPRLPRPRPRPVYSPRP | -0.102
RRIRKRPPRLPRPRPRPRFHPRP | 0.077
RRIRWRPPRLPRPRPRPYKWPRP | -0.484
RRIRQRPPRLPRPRPRPYQVPRP | -0.0417
RRIRYRPPRLPRPRPRPQEDPRP | -0.135
RRIRRRPPRLPRPRPRPNWSPRP | -0.0147
RRIRTRPPRLPRPRPRPVAFPRP | -0.225
RRIRCRPPRLPRPRPRPFRTPRP | -0.421
RRIRGRPPRLPRPRPRPSWRPRP | 0.477
RRIRTRPPRLPRPRPRPIASPRP | -0.0997
RRIRGRPPRLPRPRPRPAEAPRP | 1.08
RRIRIRPPRLPRPRPRPPMFPRP | -0.181
RRIRPRPPRLPRPRPRPCLYPRP | -0.595
RRIRVRPPRLPRPRPRPSFGPRP | -0.463
RRIRPRPPRLPRPRPRPCLGPRP | -0.198
RRIRHRPPRLPRPRPRPCRYPRP | -0.0657
RRIRIRPPRLPRPRPRPEKFPRP | -0.247
RRIRDRPPRLPRPRPRPNTEPRP | -0.0682
RRIRRRPPRLPRPRPRPGRCPRP | 0.27
RRIRTRPPRLPRPRPRPNYGPRP | -0.363
RRIRYRPPRLPRPRPRPHVDPRP | -0.588
RRIRARPPRLPRPRPRPDAVPRP | 0.683
RRIRNRPPRLPRPRPRPEKAPRP | -0.0149
RRIRERPPRLPRPRPRPPPCPRP | 0.0452
RRIRCRPPRLPRPRPRPPECPRP | 0.131
